Measurements published in article PMC10673652, “PoWRKY71 is involved in Paeonia ostii resistance to drought stress by directly regulating light-harvesting chlorophyll a/b-binding 151 gene”.

Target: PoWRKY71 (Paeonia ostii, UniProt A0AB38Z7I8 1-311)
Experiment: EMSA; not stated in the material (EMSA as in Luan et al., ref. 58)
Settings: protein: recombinant, tags: His, SUMO (pET-SUMO), blunt

Chain of PoWRKY71 (A0AB38Z7I8 entry or part of it): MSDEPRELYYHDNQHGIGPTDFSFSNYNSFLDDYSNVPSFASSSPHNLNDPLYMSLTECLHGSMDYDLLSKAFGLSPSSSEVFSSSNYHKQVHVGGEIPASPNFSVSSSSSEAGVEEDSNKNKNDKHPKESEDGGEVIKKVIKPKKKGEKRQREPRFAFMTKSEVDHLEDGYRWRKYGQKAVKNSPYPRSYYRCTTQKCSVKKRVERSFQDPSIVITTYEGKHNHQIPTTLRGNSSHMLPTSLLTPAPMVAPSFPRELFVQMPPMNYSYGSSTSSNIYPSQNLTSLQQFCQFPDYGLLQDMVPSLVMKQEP

B1: PoCAB151 promoter W-box probe (dsDNA)
DNA 1: GTGTTTCCTGCATTCGGTCAGCAACCAAATGACC
DNA 2: GGTCATTTGGTTGCTGACCGAATGCAGGAAACAC
  binding result: binds

B2: PoCAB151 promoter W-box mutant probe (dsDNA)
DNA 1: GTGTTTCCTGCATTCGAAAAGCAACCAAATGACC
DNA 2: GGTCATTTGGTTGCTTTTCGAATGCAGGAAACAC
label: biotin
  binding result: no binding
